From PMC7611084 (Chemical communications (Cambridge, England), 2020)
Blank lines part the entries; values can stand above or below the molecule they belong to.

How the values were obtained:
SpCID1 = biological target: T1, SpCID1 (Schizosaccharomyces pombe, UniProt O13833); test: fluorescence titration; format: binding
T1 sequence (O13833 1-405): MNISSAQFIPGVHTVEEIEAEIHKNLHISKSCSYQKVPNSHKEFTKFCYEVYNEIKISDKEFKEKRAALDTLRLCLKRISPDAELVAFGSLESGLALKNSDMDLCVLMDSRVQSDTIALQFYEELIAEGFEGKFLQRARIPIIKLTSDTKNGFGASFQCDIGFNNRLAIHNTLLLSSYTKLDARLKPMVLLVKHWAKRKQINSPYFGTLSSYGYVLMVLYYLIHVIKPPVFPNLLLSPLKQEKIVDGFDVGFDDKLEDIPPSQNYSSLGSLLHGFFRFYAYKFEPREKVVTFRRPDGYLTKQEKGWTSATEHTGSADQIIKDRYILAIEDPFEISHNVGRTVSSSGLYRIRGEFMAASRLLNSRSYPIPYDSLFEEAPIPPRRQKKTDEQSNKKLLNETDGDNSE

[1] = biological target: T2, SpCID1 (caffeine-induced death suppressor 1, terminal uridylyl transferase) (Schizosaccharomyces pombe, UniProt O13833 1-405); test: EMSA
T2 sequence: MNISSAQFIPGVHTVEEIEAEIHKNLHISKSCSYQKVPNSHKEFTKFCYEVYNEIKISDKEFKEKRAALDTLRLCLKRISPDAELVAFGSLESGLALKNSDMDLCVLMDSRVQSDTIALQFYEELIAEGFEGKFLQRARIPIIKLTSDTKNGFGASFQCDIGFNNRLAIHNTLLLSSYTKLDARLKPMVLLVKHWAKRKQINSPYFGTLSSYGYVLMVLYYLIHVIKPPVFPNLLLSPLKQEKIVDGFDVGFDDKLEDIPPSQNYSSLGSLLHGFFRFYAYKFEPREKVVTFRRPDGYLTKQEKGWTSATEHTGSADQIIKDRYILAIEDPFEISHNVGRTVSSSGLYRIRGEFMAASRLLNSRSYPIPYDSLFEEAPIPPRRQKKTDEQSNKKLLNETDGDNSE

[2] = biological target: T2, SpCID1 (caffeine-induced death …); test: fluorescence titration

- Kd (SpCID1): 180 ± 40 nM
Molecule: O=c1[nH]c(=O)n([C@@H]2O[C@H](COP(=O)(O)OP(=O)(O)OP(=O)(O)O)[C@@H](O)[C@H]2O)cc1-c1cc2ccccc2o1 [compound 2, BFUTP]

Molecule: UUACCAUAGAAUCAUGUGCCAUACAUCAU (ssRNA, 3'-terminal U (position 29) is 5-benzofuran-uridine (BFU)) [3BFU]
- Kd [1]: ~5400 nM

Molecule: UUACCAUAGAAUCAUGUGCCAUACAUCAU (ssRNA, 3'-terminal U (position 29) is 5-benzofuran-uridine (BFU)) [4BFU]
- Kd [2]: 520 ± 40 nM
